In patent US20230051266A1 (ABL BIO, published 2023):

T1: Recombinant Human BCMA (human, UniProt Q02223 1-54)
T1 construct: also called hBCMA; recombinant BCMA
T1 sequence: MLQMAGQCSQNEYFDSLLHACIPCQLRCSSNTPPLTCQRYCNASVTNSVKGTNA


Experiments:
[1] = molecular target: T1, Recombinant Human BCMA; assay: single clone phage ELISA on coated recombinant BCMA
Procedure: Specifically, the phage pool obtained according to Example 1-2 was sequentially diluted, and cultured on a solid medium containing LB-tetracycline/cabenicillin to obtain single colonies. Each colony was cultured on a 96-deep well plate so that OD600 was from 0.5 to 0.7. 20 MOI of helper phage was added to each well, and reacted at 37° C. for 1 hour. Thereafter, kanamycin was added to each well and incubated overnight at 30° C. On the next day, the culture was centrifuged and the supernatant thereof was collected, and then, ELISA was performed to select BCMA-specific phages. Each well of the ELISA plate was coated with 100 ng of recombinant BCMA, and then incubated with PBS-B (3% BSA containing PBS) to prevent nonspecific binding. Thereafter, the plate was washed with PBS. The prepared single clone phage was added to each well and incubated at 37° C. for 1 hour, and the plate was washed three times with PBS-T. For detecting the bounded phages, horseradish peroxidase (HRP) conjugated anti-hemagglutinin (HA) antibody was added to each well. After washing step with PBS-T, tetramethylbenzidine (TMB, Sigma, T0440) was added. Clones, which are with an absorbance that is 0.5 or more at the wavelength of 450 nm and also the absorbance is at least 5 times greater than that of the control with anti-HA HRP alone, were selected. Four antibody clones (B58, 5B5, 5D5, and 5A6), which specifically bind to human BCMA, were selected.

[2] = molecular target: T2, Recombinant Human 4-1BB protein (human, UniProt Q07011 24-186); assay: phage ELISA on 4-1BB antigen-coated plates
T2 construct: also called h4-1BB; 4-1BB antigen

Binder | binding result [1] | binding result [2]
5B5 (phage antibody clone) (scFv, V domains shown) VH: EVQLLESGGGLVQPGGSLRLSCAASGFTFSGHYWSWVRQAPGKGLEWVSTVSGSGGDTFYADSVKGRFTISRDNSKNTLYLQMNSLRAEDTAVYYCARGHSVMDVWGQGTLVTVSS VL: EIVLTQSPGTLSLSPGERATLSCRASQGIDSYVAWYQQKPGQAPRLLIYDASLRATGIPDRFSGSGSGTDFTLTISRLEPEDFAVYYCQQYNSWPITFGQGTKLEIK | binds | –
5D5 (phage antibody clone) (scFv, V domains shown) VH: EVQLLESGGGLVQPGGSLRLSCAASGFTFSDYGLSWVRQAPGKGLEWVSLIDSSGSSTFYADSVKGRFTISRDNSKNTLYLQMNSLRAEDTAVYYCAKEHGLFDSWGQGTLVTVSS VL: EIVLTQSPGTLSLSPGERATLSCKASQDIDDDINWYQQKPGQAPRLLIYDASLRATGIPDRFSGSGSGTDFTLTISRLEPEDFAVYYCQQSLRTPITFGQGTKLEIK | binds | –
AB41 (phage antibody clone) (other, Clone as selected by phage ELISA) VH: QVQLQQSGAEVIKPGASVKLSCKASGYTFSSYWMHWVRQAPGQGLEWIGEINPGNGHTNYNEKFKSRATLTGDTSTSTVYMELSSLRSEDTAVYYCARSFTTARAFAYWGQGTLVTVSS VL: DIVMTQSPAFLSVTPGEKVTITCRASQTISDYLHWYQQKPDQAPKLLIKYASQSISGIPSRFSGSGSGTDFTFTISSLEAEDAATYYCQDGHSFPPTFGQGTKLEIK | – | binds
5A6 (phage antibody clone) (scFv, V domains shown) VH: EVQLLESGGGLVQPGGSLRLSCAASGFTFSNYGVHWVRQAPGKGLEWVSYISYSGGTYYNPSLKSRFTISRDNSKNTLYLQMNSLRAEDTAVYYCARDSDDFGFDYWGQGTLVTVSS VL: QSVLTQPPSASGTPGQRVTISCQGDSLRSYYVNWYQQLPGTAPKLLIYDHSKRPTGVPDRFSGSKSGTSASLAISGLRSEDEADYYCQSYDSSTVVFGGGTKLTVL | binds | –
